The record followed here is publication PMC6800368, “Rotational symmetry of the structured Chip/LDB-SSDP core module of the Wnt enhanceosome” (Proceedings of the National Academy of Sciences of the …, 2019).

Residue numbers refer to the chain shown, from its start. Numbers in names are those of the source. Where “and” joins values, the source holds several entries; their conditions need not be identical. Equal entries are not always repeated.

Series [1] has as its target Lip-SSDP_(1–92) Mα3 (F66E L69A Y70A) (Drosophila) (UniProt Q9VEB9). Kind of series: SEC-MALS; MBP-LCCD_(Chip) (WT or Mα6) coexpressed with Lip-SSDP_(1–92) (WT, V65K, Mα3 or ML), purified; Superdex-200 10/300, 2 mg/mL, PBS, 1 mM DTT; PAGE of SEC fractions.
Series [2] deals with the molecule itself. The series can be described thus: crystal structure; SSDP_(1–86), tags removed; vapor diffusion at 19 °C; 2.4 Å.
Series [3] deals with the molecule itself. Kind of series: crystal structure; DD (XLdb1 20-200) bound to a DARPin; 2.0 to 2.59 Å depending on the DARPin.
Series [4] deals with the molecule itself. The series can be described thus: SEC-MALS; Lip-SSDP_(1–92) WT and mutants alone; Superdex-200 10/300, loaded at 2 mg/mL, PBS, 1 mM DTT; self-association of SSDP dimers into tetramers.
The target of a further series is T1, MBP-LCCD_(Chip) (Drosophila, UniProt Q7KVG9-2 384-436).
T1 construct: Drosophila Chip, LCCD, residues 384-436; also called Chip-LCCD (residues 384 to 436); source: E. coli BL21(DE3)-RIL, bicistronic coexpression with Lip-SSDP_(1–92), purified (Ni-NTA, gel filtration)
T1 sequence (looked up): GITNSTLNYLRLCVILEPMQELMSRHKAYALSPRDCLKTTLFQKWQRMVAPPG
Kind of series: SEC-MALS; MBP-LCCD_(Chip) (WT or Mα6) coexpressed with Lip-SSDP_(1–92) (WT, V65K, Mα3 or ML), purified; Superdex-200 10/300, 2 mg/mL, PBS, 1 mM DTT; PAGE of SEC fractions. Particulars: both partners purified. (Size exclusion chromatography separates by hydrodynamic size, large species first.)

Series [5] concerns the molecule itself. The description is as above.

In general, stoichiometry N refers to the number of molecules, sites or subunits per partner or assembly. In series [1], “Lip-SSDP_(1–92) Mα3 (F66E L69A Y70A) (from UniProt Q9VEB9 1-92) (domain or fragment)” yielded a stoichiometry N of 2.

B1: SSDP_(1–86) (domain or fragment, Drosophila, UniProt Q9VEB9 1-86, looked up)
chain: MYGKSKTSAVPSDAQAREKLALYVYEYLLHVGAQKAAQTFLSEIRWEKNITLGEPPGFLHTWWCVFWDLYCAAPERRDQCDHSSEA
notes: also called SSDP-N; N-terminal dimerization domain of SSDP; source: E. coli BL21(DE3)-RIL, purified (Ni-NTA, gel filtration)
On to B1, for which the binding result in series [2] is on record as “binds”.

B2: DD (XLdb1 20-200) (domain or fragment, Xenopus laevis, UniProt P70060 20-200, looked up)
chain: GIGRHTPYGNQTDYRIFELNKRLQNWTEECDNLWWDAFTTEFFEDDAMLTITFCLEDGPKRYTIGRTLIPRYFRSIFEGGATELYYVLKHPKESFHNNFVSLDCDQCTMVTQHGKPMFTQVCVEGRLYLEFMFDDMMRIKTWHFSIRQHRELIPRSILAMHAQDPQMLDQLSKNITRCGLS
notes: Xenopus laevis Ldb1 (XLdb1), dimerization domain, residues 20-200; also called dimerization domain of XLdb1; source: E. coli BL21(DE3)-RIL, purified (Ni-NTA, gel filtration)
As to B2, in series [3], the binding result was “binds”.

B3: Lip-SSDP_(1–92) (domain or fragment, Drosophila, UniProt Q9VEB9 1-92, looked up)
chain: MYGKSKTSAVPSDAQAREKLALYVYEYLLHVGAQKAAQTFLSEIRWEKNITLGEPPGFLHTWWCVFWDLYCAAPERRDQCDHSSEAKAFHDY
notes: Drosophila SSDP, residues 1-92; Obligate dimer; dimers and tetramers are seen by SEC-MALS; also called SSDP-N; WT Lip-SSDP_(1–92); source: E. coli BL21(DE3)-RIL, purified (Ni-NTA, gel filtration); alone or coexpressed with MBP-LCCD from a bicistronic vector
As to B3, the “stoichiometry N” value is 2 and 4 in series [4]; ~2 SSDP chains per LCCD (4:2, from the printed formula) and ~2 SSDP chains per LCCD with MBP-LCCD_(Chip).

B4: Lip-SSDP_(1–92) ML (I50E L52E) (domain or fragment, Drosophila, UniProt Q9VEB9 1-92, looked up)
chain: B3 chain with I50E, L52E
notes: Drosophila SSDP, residues 1-92; also called SSDP ML; source: E. coli BL21(DE3)-RIL, purified (Ni-NTA, gel filtration); alone or coexpressed with MBP-LCCD
Take B4: in series [4], the binding result was “binds”. In the series with MBP-LCCD_(Chip), the “stoichiometry N” value is 2 SSDP chains per LCCD.

B5: Lip-SSDP_(1–92) V65K (domain or fragment, Drosophila, UniProt Q9VEB9 1-92, looked up)
chain: B3 chain with V65K
notes: Drosophila SSDP, residues 1-92; also called SSDP V65K; source: E. coli BL21(DE3)-RIL, purified (Ni-NTA, gel filtration); alone or coexpressed with MBP-LCCD
For the molecule B5, the “stoichiometry N” value in series [5] was 4.
